Target: T1, Twinkle (mitochondrial DNA helicase) (human, UniProt Q96RR1 43-684, del1-42)
T1 sequence: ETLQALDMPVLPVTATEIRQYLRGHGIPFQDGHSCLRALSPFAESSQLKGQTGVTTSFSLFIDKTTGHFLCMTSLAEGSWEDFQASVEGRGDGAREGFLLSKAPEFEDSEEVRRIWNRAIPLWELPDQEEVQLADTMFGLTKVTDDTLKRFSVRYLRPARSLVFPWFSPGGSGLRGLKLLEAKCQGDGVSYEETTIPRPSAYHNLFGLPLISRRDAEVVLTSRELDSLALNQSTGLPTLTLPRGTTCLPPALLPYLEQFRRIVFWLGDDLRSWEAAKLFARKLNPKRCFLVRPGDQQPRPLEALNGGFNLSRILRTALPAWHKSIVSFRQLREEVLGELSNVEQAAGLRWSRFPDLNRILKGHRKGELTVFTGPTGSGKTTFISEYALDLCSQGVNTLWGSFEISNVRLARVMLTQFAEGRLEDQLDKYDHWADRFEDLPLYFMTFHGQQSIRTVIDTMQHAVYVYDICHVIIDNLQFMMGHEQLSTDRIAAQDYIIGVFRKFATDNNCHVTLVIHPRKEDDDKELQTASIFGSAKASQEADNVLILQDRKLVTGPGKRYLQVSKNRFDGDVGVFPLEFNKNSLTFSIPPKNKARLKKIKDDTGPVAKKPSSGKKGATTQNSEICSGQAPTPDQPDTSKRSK
Assay: FAM fluorescence quenching titration

B1: BHQ1-dT22 (ssDNA)
DNA: TTTTTTTTTTTTTTTTTTTTTT
Kd: 27.7 ± 3.8 nM
